Data taken from paper PMC11969024 (2025).

B1: peptide HD2 (from tick evasin EVA4) / CCL22 (biotinylated, synthetic) (parent complex)
chain 1: EEDDYTAYAPLTCYFT
chain 2: GPYGANMEDSVCCRDYVRYRLPLRVVKHFYWTSDSCPRPGVVLLTFRDKEICADPRVPWVKMILNKLSQ
B2: peptide HD2 (from tick evasin EVA4) / CXCL13 (biotinylated, synthetic) (parent complex)
chain 1: EEDDYTAYAPLTCYFT
chain 2: VLEVYYTSLRCRCVQESSVFIPRRFIDRIQILPRGNGCPRKEIIVWKKNKSIVCVDPQAEWIQRMMEVLRKRSSSTLPVPVFKRKIP

Variants of: B1

| Variant | enrichment |
| --- | --- |
| chain 1 E1Y | -0.831 log2 (difference from the parental peptide) |
| chain 1 E1F | -2.24 log2 (difference from the parental peptide) |
| chain 1 T6Q | 1.04 log2 (difference from the parental peptide) |
| chain 1 T6W | 0.246 log2 (difference from the parental peptide) |
| chain 1 T6A | 2.21 log2 (difference from the parental peptide) |
| chain 1 T6F | -4.13 log2 (difference from the parental peptide) |
| chain 1 F15N | -0.8 log2 (difference from the parental peptide) |
| chain 1 F15W | 0.858 log2 (difference from the parental peptide) |
| chain 1 F15Q | -0.747 log2 (difference from the parental peptide) |
| chain 1 L11W | -0.394 log2 (difference from the parental peptide) |
| chain 1 Y14V | 0.032 log2 (difference from the parental peptide) |
| chain 1 Y14K | -0.0931 log2 (difference from the parental peptide) |
| chain 1 Y14A | -1.98 log2 (difference from the parental peptide) |
| chain 1 Y14N | -0.898 log2 (difference from the parental peptide) |
| chain 1 D3W | -4.6 log2 (difference from the parental peptide) |
| chain 1 A9K | -1.67 log2 (difference from the parental peptide) |
| chain 1 A9F | -6.96 log2 (difference from the parental peptide) |
| chain 1 A9V | -7.85 log2 (difference from the parental peptide) |
| chain 1 T16F | -0.929 log2 (difference from the parental peptide) |
| chain 1 T16R | 0.774 log2 (difference from the parental peptide) |

| Variant | enrichment |
| --- | --- |
| chain 1 T16C | -0.313 log2 (difference from the parental peptide) |
| chain 1 A7K | 1.75 log2 (difference from the parental peptide) |
| chain 1 A7S | 0.765 log2 (difference from the parental peptide) |
| chain 1 A7F | -4.01 log2 (difference from the parental peptide) |
| chain 1 A7R | 1.93 log2 (difference from the parental peptide) |
| chain 1 A7N | 0.601 log2 (difference from the parental peptide) |
| chain 1 C13V | -4.77 log2 (difference from the parental peptide) |
| chain 1 C13T | -3.64 log2 (difference from the parental peptide) |
| chain 1 C13N | -2.81 log2 (difference from the parental peptide) |
| chain 1 C13E | -7.93 log2 (difference from the parental peptide) |
| chain 1 D4M | -4.82 log2 (difference from the parental peptide) |
| chain 1 D4W | -3.58 log2 (difference from the parental peptide) |
| chain 1 D4Q | -6.48 log2 (difference from the parental peptide) |
| chain 1 D4P | -7.07 log2 (difference from the parental peptide) |
| chain 1 P10D | -7.41 log2 (difference from the parental peptide) |
| chain 1 T12R | 4.22 log2 (difference from the parental peptide) |
| chain 1 T12N | -0.224 log2 (difference from the parental peptide) |
| chain 1 T12S | -0.091 log2 (difference from the parental peptide) |
| chain 1 T12K | 2.34 log2 (difference from the parental peptide) |

Variants of: B2

| Variant | enrichment |
| --- | --- |
| chain 1 T16G | 2.07 log2 (difference from the parental peptide) |
| chain 1 T16F | -1.23 log2 (difference from the parental peptide) |
| chain 1 T16S | 0.948 log2 (difference from the parental peptide) |
| chain 1 T16R | -7.96 log2 (difference from the parental peptide) |
| chain 1 D3M | -5.03 log2 (difference from the parental peptide) |
| chain 1 D3L | -5.21 log2 (difference from the parental peptide) |
| chain 1 A7T | 2.08 log2 (difference from the parental peptide) |
| chain 1 D4G | -5 log2 (difference from the parental peptide) |
| chain 1 D4Y | -2.64 log2 (difference from the parental peptide) |
| chain 1 E1K | -4.84 log2 (difference from the parental peptide) |
| chain 1 E1D | 2.17 log2 (difference from the parental peptide) |
| chain 1 E1S | -2.39 log2 (difference from the parental peptide) |
| chain 1 Y8G | -3.39 log2 (difference from the parental peptide) |
| chain 1 Y8A | -4.55 log2 (difference from the parental peptide) |
| chain 1 Y14H | -4.76 log2 (difference from the parental peptide) |
| chain 1 F15S | -6.75 log2 (difference from the parental peptide) |
| chain 1 A9H | -1.63 log2 (difference from the parental peptide) |
| chain 1 A9Y | -1.21 log2 (difference from the parental peptide) |

| Variant | enrichment |
| --- | --- |
| chain 1 L11W | -1.43 log2 (difference from the parental peptide) |
| chain 1 L11A | -7.28 log2 (difference from the parental peptide) |
| chain 1 P10N | -5.21 log2 (difference from the parental peptide) |
| chain 1 P10D | 0.396 log2 (difference from the parental peptide) |
| chain 1 C13L | -10.1 log2 (difference from the parental peptide) |
| chain 1 Y5P | -1.42 log2 (difference from the parental peptide) |
| chain 1 Y5H | -5.1 log2 (difference from the parental peptide) |
| chain 1 Y5M | -0.226 log2 (difference from the parental peptide) |
| chain 1 Y5A | -2.67 log2 (difference from the parental peptide) |
| chain 1 Y5D | 1.05 log2 (difference from the parental peptide) |
| chain 1 Y5G | -3.88 log2 (difference from the parental peptide) |
| chain 1 E2S | -2.79 log2 (difference from the parental peptide) |
| chain 1 E2W | 1.38 log2 (difference from the parental peptide) |
| chain 1 T12D | -5.43 log2 (difference from the parental peptide) |
| chain 1 T12F | -1.29 log2 (difference from the parental peptide) |
| chain 1 T12M | -0.149 log2 (difference from the parental peptide) |
| chain 1 T6M | 3.02 log2 (difference from the parental peptide) |
| chain 1 T6K | -2.94 log2 (difference from the parental peptide) |
